Measured values: the RNAGym collection of RNA variant scans (doi:10.1073/pnas.2313332121)

B1: TPR t1 (parent)
chain: GACCAAUCUGCCCUCAGAGCUCGAGAACAUCUUCGGAUGCAGAGGAGGCAGGCUUCGGUGGCGCGAUAGCGCCAACGUCCUCAACCUCCAAUGCAUCCCACCACAUGAUGAUGCCUGAAGAGCCUUGGUUUUUUG

Variants of: B1
Experiment: polymerase ribozyme fitness, log enrichment relative to wild type (log ratio); higher = more active; in vitro selection for triplet polymerase activity
How it was run: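 To select mutant libraries of each subunit of a heterodimeric triplet polymerase ribozyme, built by PCR and transcribed, each was annealed with a biotinylated primer, partner subunit and triplets, then incubated frozen at −7 °C. Extended constructs were gel-excised, captured on streptavidin beads and amplified by RT-PCR, in one round carried out in triplicate. Illumina sequencing of input and output libraries kept genotypes with ≥10 input reads and ≥1 read per output. Fitness is the base-2 logarithm of genotype enrichment relative to wild-type enrichment, from inverse-variance-weighted replicate averages.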

| Variant | polymerase ribozyme fitness (log ratio) |
| --- | --- |
| GACCAAUCUGCCCUCAGAGCUCGAGAACAUCUUCGGAUGCAGAGGAGGCAGGCUUCGGUGGCGCGAUAUCGCCAACGUCCACAACCUCCAAUGCAUCCCACCACAUGAUGAUGCCUGAAGAGCCUUGGUUUUUUG | 0.151 |
| GAACAAUCUGCCCUCAGAGCUCGAGAACAUCUUCGGAUGCAGAGGAGGCAGGCUUCGGUGGCGUGAUAGCACCAACGUCCUCAACCUCCAAUGCAUCCCACCACAUGAUUAUGCCUGAAGAGCCUUGGGUUUUUG | -6.8 |
| GACCAAUCUGCCCUCAGAGCUCGAGAACAUCUUCGGAUGCAGAGGAGGCAGGCUUCGGUGGCGCGAUAGCGCCAACGGCCUCAACCUCCAAUGCAUCCCACCACAUGAUGAUGCCAGAAGAGCCUUGGUUUUUUG | -3 |
| GACCAAUCGGACCUCAGAGCUCGAGAACAUCUUCGGAUGCAGAGGAGGCAGACUUCCGUGGCGCGAUAGCGCCAACGUCCUCAACCUCCAAUGCAUCCCACCACAUGAUGAUGCCGGAAGGGCCUUGGUUUUUUG | 0.971 |
| GACCAAUCUGCCCUCAGAGCUCGAGAACAUCUUCGGAUGCAGAGGAGGCAGGCUUCGGUGGCGCGUUAGCGCCAACGUCCUCAACCUCCAAUGCAUCCCACCACAUGAUGAUGCCUGAAGAGCCUUGGUGUUUUG | -1.71 |
| GACCAAUCUGCCCUCAGAGCUCGAGAACAUCUUCGGAUGCAUAGGAGGCAGGCUUCGGUGGCCCGAUAGCGCCAAAUUCCUCAACCUCCUAUGCAUCCCACCACAUGAUGAUGCCUCAAGAGCCUUUCUUUUUUG | -3.83 |
| GACCAAUCUGCCCUCAGAGCUCGAGAACAUCUUCGGAUGCAGAGGAGGCAGGCUUCGGUGGCGCGAUAGCGCCAACCUCCUCAACCUCUAAUGCAUCCCACCACAUGAUGAUGCCUGAAGAGCCUUGCUUUUUUG | -3.81 |
| GACCAAUCUGCCCUCAGAGCUCGAGAACAUCUUCGGAUGCAGAGGAGGCAGACUUCGGUGCCGCGAUAGCGCCAACGUCCUCAACCUCCAAUGCAUCCCACCACAUGAUGAUGCCUGAAGAGCCUUGGUUUUUUG | -4.29 |
| GACCAAUCUGCCCUCAGAGCUCGAGAACAUCUUCGGAUGCAGAUGAGGCAGGCUUCGGUGGCGCGAUAGCGCCAACGUCCUCAACCUCCAAUGCAUCUCACCACAUGAUGAUGCCUGAAGAGCCUUGGUUUUUUG | -2.19 |
| GACCAAUCUGCCCUCAGAGCUCGAGAACAUCUUCGGAUGCAGAGGAGGCAGGCAUCGGUGGCGCGAUAGCUCCAACGUCCUCAACCUCCAAUGCAUCCCACCACAUGAUGAUGCCUGAAGAGCCUGGGUUUUUUG | -2.06 |
| GACCAAUCUGCCCUCAGAGCUCGAGAACAUCUUCGGAUGCAAAGGAGGCAGGCUUCGGUGGUGCGAUAGCGCCAACGUCCUCACCCUCCAAUGCAUCCCACCACAUGAUGAUGCCUGAAGAGCCUUGGUUUUUUG | -3.09 |
| GACCAAUCUGCCCUCAGAGCUCGAGAACAUCUUCGGAUGCAGAGGAGGCAGGCUUCGGUGGCACGAUAGCGCCAACGUCCUCAACCUCCAAUGCAUCCCACCACAUGAUGAUGCCUGAAGAGCCUGGGUGUUUUG | -4.43 |
| GACCAAUCUGCCCUCAGAGCUCGAGAACAUCUUCGGGUGCAGAGGAGGCAGGCUUCGGUGGCGCGAUAGCGCCAACGUCCUCAACCUCCAAUGCAUCCCACCACAUGAUGAUGCCUGAAGAGCCUUGGUUUUUUG | -0.185 |
| GACCAAUCUGCCCUCAGAGCUCGAGAACAUCUUCGGAUGCAGAGGAGGCAGGUUACGGUGGCGCGAUAGCGCCAACGUCCUCAACCUCCAAUGCAUCCCACCACAUGAUGAUGCCUGAAGAGCCUUGGUUUUUUG | -0.075 |
| GACCAAUCUGCCCUCAGAGCUCGAGAACAUCUUCGGAUGCAGAGGAGGCAGGUUUCGGUUGCGCGAUAGCGCCAACGUCCUCAACCUCCAAUGCAUCCCAUCCCAUGAUGAUGCCUGAAGAGCCUUGGUUUUUUG | -5.14 |
| GACCAAUCUGCGCUCAGAGCUCGAGAACAUCUUCGGAUUCAGAGGAGGCAGGCUUCGGUUGCGCGAUAGCGCCAACGUCGUCAACCUCCAAUGCAUCCCACCACAUGAUGAUGCCUGAAGAGUCUUGGUUUUUUG | -4.73 |
| GACCAAUCUGCCCUCAGAGCUCGAGAACAUCUUCGGAUGCAGAGAAGGCAGGCUUCGGUGGCGCGAUAGCGCCAACGUCCUCAACCUCCAAUGCAUCCCAACACAUGAUGAUGCCUGAAGAGCCUUGGUUUUUUG | -1.74 |
| GACCAAUCAGCCCUCAGAGCUCGAGUACAUCUUCGGAUGCAGAGGAGGCAGGCUUCGGUGGCGCGAUAGCGCCAACGUCCUCAACCUCCAAUGCAUCCCACCACAUGAUGAUGCCUGAAGAGCCUUGGUUUUUUG | -1.79 |
| GACCAAUCUGCCCUCAGAGCUCGAGAACAUCUUCGGAUGCAGAGGAGGCAGGCUUCGGUGGCGCGAUAGCGCCAACGUCCUCCACCUCCAAUGCAUCCCACCACAUGAUGAUGGCUGAAGAGCCUUGGUUUAUUG | -2.52 |
| GACCAAUCAGCCCUCAGAGCUCGAGAACAUCUUCGGAUGCAGAGGAUGCAGGCUUCGGUGGCGCGAUAGCGCCAACGUCCUCAACCUCCAAUGCAUGCUACCACAUGAUGAUGCCUGAAUAGCCUUGGUCUUUUG | -5.08 |
| GACCAAUCUGCCCUCAGAGCUCGAGAAGAUCUUCGGAUGCAGAGGAGGCAGGCAUCGGUGGCGCGAUAGCGCCAACGUCCUCAACCUCCAAUGCAUCCCACCACAUGAUGAUGCCUGAAGAUCCUUGGUUUUUUG | -2.85 |
